Assay results from PMC4432866 (Nature communications, 2014).
Where two headings read alike, the source gives them in different places. Each block holds one binder with its values, some of them ahead of it. Ends that are not written are not given here.

B1: talin-R9 (domain or fragment, mouse, UniProt P26039 1654-1848, looked up)
chain: KAPGQLECETAIAALNSCLRDLDQASLAAVSQQLAPREGISQEALHTQMLTAVQEISHLIEPLASAARAEASQLGHKVSQMAQYFEPLTLAAVGAASKTLSHPQQMALLDQTKTLAESALQLLYTAKEAGGNPKQAAHTQEALEEAVQMMTEAVEDLTTTLNEAASAAGVVGGMVDSITQAINQLDEGPMGDPEG
B2: talin-F3 (His-tagged, pull-down) (domain or fragment, mouse, UniProt P26039 309-405, looked up)
chain: GVSFFLVKEKMKGKNKLVPRLLGITKECVMRVDEKTKEVIQEWSLTNIKRWAASPKSFTLDFGDYQDGYYSVQTTEGEQIAQLIAGYIDIILKKKKS

Tests used:
talin-F2F3 [1] = molecular target: T1, talin-F2F3 (mouse, UniProt P26039 206-405); assay: NMR titration
talin-F3 = talin-F3 (mouse, UniProt P26039 309-405); assay: NMR titration
[2] = molecular target: B2; assay: pull-down
[3] = molecular target: talin-R9 (pull-down competitor) (mouse, UniProt P26039 1654-1848); assay: pull-down
talin-F2F3 [4] = molecular target: T1, talin-F2F3; assay: NMR titration; remark: listed apart in the source

Binder: B1
binding result (talin-F2F3 [1]): binds

binding result (talin-F3): binds
Binder: KKKITIHDRKEFAKFEEERARAKWDTANNPLYKEATSTFTNITYRGT (peptide, UniProt P05106 742-788, looked up) [integrin β3 CT (716–762) L717K/L718K]

binding result [2]: binds
Binder: KKKITIHDRKEFAKFEEERARAKWDTANNPLYKEATSTFTNITYRGT (peptide, UniProt P05106 742-788, looked up, also: His-tagged) [integrin β3 CT (716–762) L717K/L718K (His-tagged, pull-down)]

Binder: B2
binding result [3]: binds

binding result (talin-F2F3 [4]): binds | binding result (talin-F3): binds
Binder: DIDQMFSTLLGEMDLLTQSLGVDT (peptide, UniProt Q7Z5R6 7-30, looked up) [RIAM-N]
